Data on two molecules can be found in US20200239594A1 (MINERVA BIOTECHNOLOGIES, published 2020).

The target in assay [1] is T1, MUC1* extracellular domain peptide (PSMGFR, primary sequence of the MUC1 growth factor receptor).
T1 construct: Synthetic peptide adsorbed onto ELISA plates; The immunogen carried an extra C-terminal cysteine for KLH conjugation; also called MUC1* peptide; PSMGFR peptide
T1 peptide: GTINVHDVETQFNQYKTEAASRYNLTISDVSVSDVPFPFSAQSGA
Nature of the assay: competition ELISA, peptide on plate, competitor: parent MIN-C2 antibody. The protocol: To test the ability of the Fab produced by papain digestion to compete with the parent antibody for binding to the MUC1* peptide, varying concentrations of the Fab were added. After wash steps, the ELISA was processed by standard methods.
(In an ELISA, binding on a coated surface is turned into a signal by an enzyme label.)

The target in assay [2] is T1, MUC1* extracellular domain peptide …. Nature of the assay: ELISA on plate-adsorbed peptide; reference: refolded scFv before peptide affinity chromatography.

B1: MIN-C2 Fab (papain digestion of MIN-C2 antibody) (Fab, V domains shown)
VH: EVQLEESGGGLVKPGGSLKLSCAASGFTFSGYAMSWVRQTPEKRLEWVATISSGGTYIYYPDSVKGRFTISRDNAKNTLYLQMSSLRSEDTAMYYCARLGGDNYYEYFDVWGAGTTVTVSS
VL: DIVITQSTASLGVSLGQRATISCRASKSVSTSGYSYMHWYQQRPGQPPKLLIYLASNLESGVPARFSGSGSGTDFTLNIHPVEEEDAATYYCQHSRELPFTFGGGTKLEIKR
notes: Enzymatic Fab of about 50 kD made by papain digestion of the parent mAb; also called monovalent form of MIN-C2
In the case of B1, the binding result in assay [1] is “binds”.

B2: MIN-C2 scFv (heavy chain variable-linker-light chain variable, C-terminal poly-histidine tag) (scFv)
scFv: EVQLEESGGGLVKPGGSLKLSCAASGFTFSGYAMSWVRQTPEKRLEWVATISSGGTYIYYPDSVKGRFTISRDNAKNTLYLQMSSLRSEDTAMYYCARLGGDNYYEYFDVWGAGTTVTVSSAKTTPPSVYGGGGSGGGGSGGGGSDIVITQSTASLGVSLGQRATISCRASKSVSTSGYSYMHWYQQRPGQPPKLLIYLASNLESGVPARFSGSGSGTDFTLNIHPVEEEDAATYYCQHSRELPFTFGGGTKLEIKRADAAPTVSVDHHHHHH
notes: part was further purified on a PSMGFR peptide column; also called scFv protein; recombinant scFv
Consider B2, for which, in assay [2], the “fold higher specific activity after antigen affinity purification” value was about 10 fold and the “fold improvement of specific binding after antigen affinity purification” value is 10 fold.
